Laboratory results taken from US20200338209A1, “ANTI-B7-H3 ANTIBODIES AND ANTIBODY DRUG CONJUGATES” (AbbVie Inc., priority 2016, published 2020).

What was measured:
[1] = molecular target: T1, human B7-H3 (4Ig-B7-H3 variant) (Homo sapiens, UniProt Q5ZPR3); assay: Biacore T200 SPR binding kinetics, mAb capture, soluble ECD of human B7-H3; details: 1:1 binding model
T1 construct: His tag (6xHis) (C)
T1 sequence (Q5ZPR3 with tags, fused parts or gaps): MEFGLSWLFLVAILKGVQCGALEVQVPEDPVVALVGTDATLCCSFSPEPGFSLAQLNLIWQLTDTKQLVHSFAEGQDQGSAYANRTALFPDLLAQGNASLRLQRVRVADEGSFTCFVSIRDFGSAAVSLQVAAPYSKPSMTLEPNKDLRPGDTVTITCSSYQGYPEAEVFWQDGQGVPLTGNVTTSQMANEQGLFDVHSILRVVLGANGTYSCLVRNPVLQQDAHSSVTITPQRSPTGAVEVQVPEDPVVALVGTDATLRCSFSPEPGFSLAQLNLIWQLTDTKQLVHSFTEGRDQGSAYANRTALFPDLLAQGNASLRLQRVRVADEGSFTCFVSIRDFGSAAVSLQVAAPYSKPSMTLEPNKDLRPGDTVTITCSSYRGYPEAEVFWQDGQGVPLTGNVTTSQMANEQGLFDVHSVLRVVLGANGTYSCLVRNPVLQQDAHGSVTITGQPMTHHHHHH
Description: (§1) The binding affinity of the purified anti-B7-H3 monoclonal antibodies was determined by surface […]. […] The binding kinetics were derived from SPR measurements using a Biacore T200 instrument and a mAb capture approach (as described in the materials and methods below).
(§2) Biacore T200 SPR instruments were used to measure the binding kinetics of human B7-H3 (4Ig-B7-H3 variant) (analyte) binding to various mAbs (ligands). The assay format was Fc-based capture via immobilized anti-mouse (Fc) (Pierce 31170) or immobilized anti-human (Fc) (Pierce 31125). A standard amine coupling protocol was employed to immobilize the capture reagents via primary amines to the carboxy-methyl (CM) dextran surface of CM5 sensorchips (Biacore); capture antibodies were coupled to a level of approximately 5000RU. For binding kinetic measurements the assay buffer was HBS-EP+ (Biacore): 10 mM Hepes, pH7.4, 150 mM NaCl, 3 mM EDTA, 0.05% polysorbate 20. During the assay, all measurements were referenced against the capture surface alone. Each assay cycle consisted of the following steps: 1) Capture of ligand to approximately 50RU; 2) Analyte injection over both reference and test surface, 240 μL at 80 μL/min, after which the dissociation was monitored for 900 seconds at 80 μL/min; 3) Regeneration of capture surface with low pH glycine. For kinetic determinations analyte injections were 3-point, 9-fold dilution series of 900 nM, 100 nM and 11.11 nM, buffer only injections were included for secondary referencing. Data were processed and fit to a 1:1 binding model using Biacore T200 Evaluation Software to determine the binding kinetic rate constants, ka (on-rate) and kd (off-rate), and the equilibrium dissociation constant (affinity, KD).

cyno B7-H3 = assay: Biacore T200 SPR binding kinetics, mAb capture, soluble ECD of cyno B7-H3; parameters: species or system cynomolgus monkey; details: 1:1 binding model
Description: [The source words this procedure for another species and reports this species under the same test.] as §1, §2

[2] = Percentage aggregation of ADCs by size exclusion chromatography (SEC); assay type: physicochemical; details: humanized Ab3-CZ variants, Table 14
Description: The DAR and percentage aggregation of ADCs synthesized were determined by LC-MS and size exclusion chromatography (SEC), respectively.
Size exclusion chromatography was performed using a Shodex KW802.5 column in 0.2 M potassium phosphate pH 6.2 with 0.25 mM potassium chloride and 15% IPA at a flow rate of 0.75 ml/min. The peak area absorbance at 280 nm was determined for each of the high molecular weight and monomeric eluents by integration of the area under the curve. The % aggregate fraction of the conjugate sample was determined by dividing the peak area absorbance at 280 nm for the high molecular weight eluent by the sum of the peak area absorbances at […] of the high molecular weight and monomeric eluents multiplied by 100%.

cyno B7-H3, sequence (as listed by the source): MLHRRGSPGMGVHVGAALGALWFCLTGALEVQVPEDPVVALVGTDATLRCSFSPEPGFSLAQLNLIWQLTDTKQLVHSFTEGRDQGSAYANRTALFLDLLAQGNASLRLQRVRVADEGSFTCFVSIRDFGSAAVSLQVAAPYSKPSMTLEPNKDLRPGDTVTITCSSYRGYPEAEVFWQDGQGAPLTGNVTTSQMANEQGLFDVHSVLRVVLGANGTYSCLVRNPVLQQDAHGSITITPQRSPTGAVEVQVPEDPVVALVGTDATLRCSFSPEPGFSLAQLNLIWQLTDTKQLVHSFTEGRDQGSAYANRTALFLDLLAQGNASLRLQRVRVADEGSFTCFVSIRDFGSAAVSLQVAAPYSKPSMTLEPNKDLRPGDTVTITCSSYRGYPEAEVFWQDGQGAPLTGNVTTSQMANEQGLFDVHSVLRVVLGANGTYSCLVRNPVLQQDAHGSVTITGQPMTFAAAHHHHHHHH

B1: Ab6: mouse hybridoma derived anti-B7-H3 monoclonal antibodies (mAbs) (antibody, V domains shown)
VH: QVQLQQSGAELMKPGASVKISCKATGYTFSRYWIEWVKQRPGHGLEWIGEILPGSGSTNYNEKFKGKATFTADTSSNTAYMQVSSLTSEDSAVHYCARRGYGYVPYALDYWGQGTSVTVSS
VL: EIQMTQTTSSLSASLGDRVTISCRASQDISNSLNWYQQKPDGTVNLLIYYTSRLYSGVPSRFSGSGSGTDYSLTISNLEQEDIATYFCQQGNTLPYTFGGGTKLEIK
With B1 the “ka (1/Ms) huB7-H3” value [1] was 12000 M⁻¹ s⁻¹, the “kd (1/s) huB7-H3” value [1] was 0.01 s⁻¹ and the “ka (1/Ms) cynoB7-H3” value (cyno B7-H3) was 28000 M⁻¹ s⁻¹. The “kd (1/s) cynoB7-H3” value (cyno B7-H3) was 0.012 s⁻¹.

B2: Ab7: mouse hybridoma derived anti-B7-H3 monoclonal antibodies (mAbs) (antibody, V domains shown)
VH: EVQLVESGENLVKPGGSLKLSCAASGFSFRGYGMSWVRQTPDKRLEWVAAISTGGNYTYYPDSVQGRFTISRDNANNTLYLQMSSLKSEDTAMYYCARRGGNYAGFAYWGQGTLVTVSA
VL: DIQMTQSPASLSVSVGETVTITCRPSENIYSNLAWYQQKQGKSPQLLVYAATNLADGVPSRFSGSGSGTQYSLKINSLQSEDFGTYYCQHFWGTPFTFGSGTKLEIK
For B2, the “KD (M) huB7-H3” value [1] was “little observable binding” and the “KD (M) cynoB7-H3” value (cyno B7-H3) was “little observable binding”.

B3: Ab17: mouse hybridoma derived anti-B7-H3 monoclonal antibodies (mAbs) (antibody, V domains shown)
VH: EVKLVESGGGLVQPGGSLKLSCAASGFTFSSYIMSWVRQTPEKRLEWVASIVSSNITYYPDSMKGRFTISRDNARNILYLQMSSLKSEDTAMYYCARSGTRAWFAYWGQGTLVTVSA
VL: DIVLTQSPASLAVSLGQRATISCRASKSVSTSAYSYMHWYQQKPGQPPKLLIYLASNLESGVPARFSGSGSGTDFTLNIHPVEEEDAATYYCQHSRELPYTFGGGTKLEIK
In the case of B3, the “ka (1/Ms) huB7-H3” value [1] is reported as 540000 M⁻¹ s⁻¹, the “kd (1/s) huB7-H3” value [1] is reported as 1.9e-05 s⁻¹ and the “ka (1/Ms) cynoB7-H3” value (cyno B7-H3) is reported as 510000 M⁻¹ s⁻¹. The “kd (1/s) cynoB7-H3” value (cyno B7-H3) was 1e-05 s⁻¹.

B4: huAb3v4-CZ (conjugate)
VH: EVQLVQSGAEVKKPGSSVKVSCKASGYTFSSYWMHWVRQAPGQGLEWMGLIHPDSGSTNYNEMFKNRVTITADKSTSTAYMELSSLRSEDTAVYYCARGGRLYFDYWGQGTTVTVSS
VL: DVVMTQSPLSLPVTPGEPASISCRSSQSLVHSNGDTYLRWYLQKPGQSPQLLIYKVSNRFSGVPDRFSGSGSGTDFTLKISRVEAEDVGVYYCSQSTHVPYTFGGGTKVEIK
modifications: drug conjugate CZ; Synthetic huAb3VH.1, huAb3v1, and huAb3v4 VH amino acid sequence; Synthetic huAb3VL.1b, huAb3v4, huAb3v5, and huAb3v6 VL amino acid sequence
In the case of B4, the “% agg by SEC” value [2] is reported as 3.1%.
